In the RNAGym collection of RNA variant scans (doi:10.7554/elife.80360):

B1: CPEB3 Ribozyme (parent)
chain: GGGGGCCACAGCAGAAGCGUUCACGUCGCGGCCCCUGUCAGAUUCUGGUGAAUCUGCGAAUUCUGCUGU

Variants of: B1
Assay: self-cleavage, relative activity (ratio to wild type); higher = more cleavage; co-transcriptional

Variant	self-cleavage
A15C G30U	0.0766
A15G C29A	0.636
A15G C29G	0.458
A15C G58C	0.84
A15C G58A	0.809
A15C G25A	0.127
A15G C57G	0.259
A15G C57A	0.45
A15G A42C	0.789
A15G A42G	0.928
A15C C18G	0.0508
A15C C18U	0.296
A15C C18A	0.174
A15G A52C	0.949
A15G C32U	1.02
A15G C32A	0.816
A15C A51C	0.752
G14U U61G	0.432
G14U U61C	0.367
G14U U67G	0.77
G14U U67C	0.55

Variant	self-cleavage
A15C A60C	0.308
A15C A60G	0.292
A15C A60U	0.377
A15G A23U	1.04
A15G A23G	0.959
A15C A59C	0.288
A15C U46C	0.88
A15C U46A	0.93
G14U U64C	0.401
G14U U64G	0.481
G14U U64A	0.458
A15G C54A	0.914
A15G C54U	1.04
A15G C54G	0.886
A15G C35A	0.273
A15G C35U	0.96
A15G C35G	0.457
A15C G17A	0.136
A15C G17U	0.25
A15C C33G	0.259
A15C C33A	0.32

Variant	self-cleavage
G14U U55C	0.345
G14U U55G	0.268
A15G C24A	0.691
A15C U38A	0.595
A15C U38G	0.292
A15C U38C	0.571
A15C G37A	0.196
A15C G37U	0.168
A15C G37C	0.105
A15C G48U	0.883
A15C G48A	0.935
A15C G48C	0.918
A15G A60C	0.43
A15G A60G	0.821
A15C C54G	0.567
A15C C54U	0.865
A15C C54A	0.447
A15G C33A	0.798
A15G C33U	0.999
A15G C33G	0.534
A15C G68C	0.917

Variant	self-cleavage
A15C G68U	0.969
A15G C45A	1
A15G C45U	1.02
A15G C45G	0.965
A15C U20A	0.125
A15C U20G	0.139
A15C U20C	0.284
A15G A59U	0.785
A15G A59G	0.994
A15C U49G	0.858
A15C U49C	0.842
A15C U26C	0.73
A15C U26A	0.48
A15C U53A	0.651
A15C C27G	0.123
A15C C27U	0.119
A15G A16U	0.691
A15G A16G	0.93
A15G C27U	0.204
A15G C27G	0.316
A15G C27A	0.645
